# Test results taken from US20120277286A1, “COMPOSITIONS AND METHODS FOR THE TREATMENT OR PREVENTION OF MITOCHONDRIAL DISEASES” (The Government of the USA, as represented by the Secretary, …, priority 2009, published 2012).
# Test system: HeLa cells
# Assay: Parkin colocalization with mitochondria scored by confocal microscopy
# Type: cell-based
# Conditions: for recruitment of mutant YFP-Parkin to depolarized mitochondria / recruitment of mutant YFP-Parkin to mitochondria: HeLa; for recruitment of mutant YFP-Parkin to depolarized mitochondria: CCCP 1 hr; for recruitment of mutant YFP-Parkin to mitochondria: 10 μM CCCP, 24 hours; for cells with Parkin localized to mitochondria: HeLa transfected with Flag-tagged Twinkle for 5 days
# Method: Cultured cells seeded in borosilicate chamber slides (Thermo Fisher Scientific) were transfected or cotransfected with YFP-Parkin, ECFP-Parkin, mCherry-Parkin, DsRed-Mito (Clontech Laboratories, Inc.), pcDNA3.1 (Invitrogen), vMIA, and/or Drp1K38A constructs using Fugene 6 (Roche). Parkin-myc was a gift from M. Cookson (National Institutes of Health, Bethesda, Md.). Cells were fixed 12-24 hours after transfection with 4% paraformaldehyde in PBS. Cells were stained with following primary antibodies: mouse monoclonal cytochrome c (BD), rabbit polyclonal Tom20 (Santa Cruz Biotechnology, Inc.), mouse monoclonal Parkin PRK8 (Santa Cruz Biotechnology, Inc.), rabbit polyclonal PMP70 (Invitrogen), and/or mouse monoclonal TRAP1 (Abcam); and with the following secondary antibodies: mouse and/or rabbit Alexa 488, 594, and 633 (Invitrogen). For assessment of mitochondrial membrane potential, cells were pulsed with 50 nM Mito-Tracker red (Invitrogen) for 15 min, washed, and incubated for an additional 10 minutes before fixation or imaging. For assessment of cell metabolic potential, cell nuclei were stained with Hoechst 33342 (Invitrogen).
# Fixed cells and live cells in the FLIP assay were imaged using an inverted microscope (LSM510 Meta; Carl Zeiss, Inc.) with a 63×/1.4 oil DIC Plan Apo objective at 25° C. and 37° C., respectively. For the FLIP assay, a bleach region of interest (ROI) occupying approximately one eighth of the cell was positioned over a relatively mitochondria-free portion of the cytosol. Cells were alternately bleached (488 nm using a 30-mW argon laser at 75% power and 100% transmission for 150 iterations) and imaged (488 nm at 75% power and 2% transmission) for 10 minutes (—60 cycles over the length of the experiment). Two channel prebleach and postbleach images were obtained with 488 and 594 lasers to assess the position of mitochondria before and after bleaching. Circular ROIs with diameters of ˜1 and 5 μm, respectively, were placed over the mitochondria and cytosol of the target cell, and an ROI of 10 μm was placed over the control cell. Imaging of YFP-Parkin translocation in live HeLa cells was performed on a live cell imager system (UltraView LCI; PerkinElmer) at 35° C. with a 100×/1.45 α-Plan-Fluor objective.
# Image contrast and brightness were adjusted in Photoshop (Adobe). Colocalization was assessed with line scans using MetaMorph (MDS Analytical Technologies). For analysis of mitochondrial membrane potential in cells, mitochondrial voxels in each image (the cytochrome c channel threshold was ≧400 au) were segregated into Parkin-positive (the YFP-Parkin channel threshold was ≧1,100 au) or Parkin-negative subsets, and MitoTracker intensity for each voxel was measured using Volocity software (Improvision). For each cell, the mean MitoTracker intensity per voxel was calculated for the Parkin-positive and Parkin-negative subsets. The difference in mean Mito-Tracker intensity between the Parkin-positive and Parkin-negative subsets was calculated using a paired t test. Western blotting HeLa cells stably expressing YFP-Parkin, HEK293 cells, and rat cortical neurons 2 days in vitro were harvested and fractionated as described previously (Karbowski et al., J. Cell Biol. 178: 71-84, 2007). Samples were run on SDS-PAGE and immunoblotted with the following antibodies: polyclonal rabbit anti-GFP (Invitrogen), mouse monoclonal anti-Parkin (PRK8), and mouse monoclonal anti-Porin 31HL (EMD).
# Confocal microscopy of fixed samples, scoring of Parkin recruitment and Parkininduced mitophagy, and live cell imaging were performed as described previously (Narendra (2008) J Cell Biol 183: 795-803). Experiments in Mfn1/2 null cells were performed as described previously with minor modifications.
# Confocal microscopy of fixed samples, scoring of Parkin recruitment and Parkin-induced mitophagy, and live cell imageing were performed as described previously (Narendra (2008) J Cell Biol 183: 795-803). […]
Molecule,recruitment of mutant YFP-Parkin to depolarized mitochondria,recruitment of mutant YFP-Parkin to mitochondria,cells with Parkin localized to mitochondria
"C253Y: YFP-Parkin patient mutation in conserved RING cysteine (protein, UniProt O60260 1-465, looked up, variant C253Y, YFP fusion, YFP-Parkin patient mutation in conserved RING cysteine) E3 ubiquitin-protein ligase …: MIVFVRFNSSHGFPVEVDSDTSIFQLKEVVAKRQGVPADQLRVIFAGKELRNDWTVQNCDLDQQSIVHIVQRPWRKGQEMNATGGDDPRNAAGGCEREPQSLTRVDLSSSVLPGDSVGLAVILHTDSRKDSPPAGSPAGRSIYNSFYVYCKGPCQRVQPGKLRVQCSTCRQATLTLTQGPSCWDDVLIPNRMSGECQSPHCPGTSAEFFFKCGAHPTSDKETSVALHLIATNSRNITCITCTDVRSPVLVFQYNSRHVICLDCFHLYCVTRLNDRQFVHDPQLGYSLPCVAGCPNSLIKELHHFRILGEEQYNRYQQYGAEECVLQMGGVLCPRPGCGAGLLPEPDQRKVTCEGGNGLGCGFAFCRECKEAYHEGECSAVFEASGTTTQAYRVDERAAEQARWEAASKETIKKTTKPCPRCHVPVEKNGGCMHMKCPQPQCRLEWCWNCGCEWNRVCMGDHWFDV",completely disrupt,,
"C289G: YFP-Parkin patient mutation in conserved RING cysteine (protein, UniProt O60260 1-465, looked up, variant C289G, YFP fusion, YFP-Parkin patient mutation in conserved RING cysteine) E3 ubiquitin-protein ligase …: MIVFVRFNSSHGFPVEVDSDTSIFQLKEVVAKRQGVPADQLRVIFAGKELRNDWTVQNCDLDQQSIVHIVQRPWRKGQEMNATGGDDPRNAAGGCEREPQSLTRVDLSSSVLPGDSVGLAVILHTDSRKDSPPAGSPAGRSIYNSFYVYCKGPCQRVQPGKLRVQCSTCRQATLTLTQGPSCWDDVLIPNRMSGECQSPHCPGTSAEFFFKCGAHPTSDKETSVALHLIATNSRNITCITCTDVRSPVLVFQCNSRHVICLDCFHLYCVTRLNDRQFVHDPQLGYSLPGVAGCPNSLIKELHHFRILGEEQYNRYQQYGAEECVLQMGGVLCPRPGCGAGLLPEPDQRKVTCEGGNGLGCGFAFCRECKEAYHEGECSAVFEASGTTTQAYRVDERAAEQARWEAASKETIKKTTKPCPRCHVPVEKNGGCMHMKCPQPQCRLEWCWNCGCEWNRVCMGDHWFDV",completely disrupt,Mitochondrial recruitment was seen,
"C441R: YFP-Parkin patient mutation in conserved RING cysteine (protein, UniProt O60260 1-465, looked up, variant C441R, YFP fusion, YFP-Parkin patient mutation in conserved RING cysteine) E3 ubiquitin-protein ligase …: MIVFVRFNSSHGFPVEVDSDTSIFQLKEVVAKRQGVPADQLRVIFAGKELRNDWTVQNCDLDQQSIVHIVQRPWRKGQEMNATGGDDPRNAAGGCEREPQSLTRVDLSSSVLPGDSVGLAVILHTDSRKDSPPAGSPAGRSIYNSFYVYCKGPCQRVQPGKLRVQCSTCRQATLTLTQGPSCWDDVLIPNRMSGECQSPHCPGTSAEFFFKCGAHPTSDKETSVALHLIATNSRNITCITCTDVRSPVLVFQCNSRHVICLDCFHLYCVTRLNDRQFVHDPQLGYSLPCVAGCPNSLIKELHHFRILGEEQYNRYQQYGAEECVLQMGGVLCPRPGCGAGLLPEPDQRKVTCEGGNGLGCGFAFCRECKEAYHEGECSAVFEASGTTTQAYRVDERAAEQARWEAASKETIKKTTKPCPRCHVPVEKNGGCMHMKCPQPQRRLEWCWNCGCEWNRVCMGDHWFDV",completely disrupt,Mitochondrial recruitment was seen,
"Twinkle G575D: catalytically inactive mutant of mitochondrial DNA helicase Twinkle, Flag-tagged (protein, UniProt Q96RR1 32-684, looked up, variant G575D, Flag tag) Twinkle mtDNA helicase: APGPPRRRYRKETLQALDMPVLPVTATEIRQYLRGHGIPFQDGHSCLRALSPFAESSQLKGQTGVTTSFSLFIDKTTGHFLCMTSLAEGSWEDFQASVEGRGDGAREGFLLSKAPEFEDSEEVRRIWNRAIPLWELPDQEEVQLADTMFGLTKVTDDTLKRFSVRYLRPARSLVFPWFSPGGSGLRGLKLLEAKCQGDGVSYEETTIPRPSAYHNLFGLPLISRRDAEVVLTSRELDSLALNQSTGLPTLTLPRGTTCLPPALLPYLEQFRRIVFWLGDDLRSWEAAKLFARKLNPKRCFLVRPGDQQPRPLEALNGGFNLSRILRTALPAWHKSIVSFRQLREEVLGELSNVEQAAGLRWSRFPDLNRILKGHRKGELTVFTGPTGSGKTTFISEYALDLCSQGVNTLWGSFEISNVRLARVMLTQFAEGRLEDQLDKYDHWADRFEDLPLYFMTFHGQQSIRTVIDTMQHAVYVYDICHVIIDNLQFMMGHEQLSTDRIAAQDYIIGVFRKFATDNNCHVTLVIHPRKEDDDKELQTASIFDSAKASQEADNVLILQDRKLVTGPGKRYLQVSKNRFDGDVGVFPLEFNKNSLTFSIPPKNKARLKKIKDDTGPVAKKPSSGKKGATTQNSEICSGQAPTPDQPDTSKRSK",,,13.1±2.3%
"wild-type Twinkle: Flag-tagged wild-type mitochondrial DNA helicase Twinkle (protein, UniProt Q96RR1 32-684, looked up, Flag tag) Twinkle mtDNA helicase: APGPPRRRYRKETLQALDMPVLPVTATEIRQYLRGHGIPFQDGHSCLRALSPFAESSQLKGQTGVTTSFSLFIDKTTGHFLCMTSLAEGSWEDFQASVEGRGDGAREGFLLSKAPEFEDSEEVRRIWNRAIPLWELPDQEEVQLADTMFGLTKVTDDTLKRFSVRYLRPARSLVFPWFSPGGSGLRGLKLLEAKCQGDGVSYEETTIPRPSAYHNLFGLPLISRRDAEVVLTSRELDSLALNQSTGLPTLTLPRGTTCLPPALLPYLEQFRRIVFWLGDDLRSWEAAKLFARKLNPKRCFLVRPGDQQPRPLEALNGGFNLSRILRTALPAWHKSIVSFRQLREEVLGELSNVEQAAGLRWSRFPDLNRILKGHRKGELTVFTGPTGSGKTTFISEYALDLCSQGVNTLWGSFEISNVRLARVMLTQFAEGRLEDQLDKYDHWADRFEDLPLYFMTFHGQQSIRTVIDTMQHAVYVYDICHVIIDNLQFMMGHEQLSTDRIAAQDYIIGVFRKFATDNNCHVTLVIHPRKEDDDKELQTASIFGSAKASQEADNVLILQDRKLVTGPGKRYLQVSKNRFDGDVGVFPLEFNKNSLTFSIPPKNKARLKKIKDDTGPVAKKPSSGKKGATTQNSEICSGQAPTPDQPDTSKRSK",,,6.7±1.2%
